Reference: patent US20180344832A1

Biological target: PDL1 on the surface of TC-1 cells (murine (TC-1 murine tumor cell line)) (UniProt Q9EP73)
Assay: flow cytometry on TC-1 cells, isotype background control

Sequence of UniProt Q9EP73 (Q9EP73 19-290): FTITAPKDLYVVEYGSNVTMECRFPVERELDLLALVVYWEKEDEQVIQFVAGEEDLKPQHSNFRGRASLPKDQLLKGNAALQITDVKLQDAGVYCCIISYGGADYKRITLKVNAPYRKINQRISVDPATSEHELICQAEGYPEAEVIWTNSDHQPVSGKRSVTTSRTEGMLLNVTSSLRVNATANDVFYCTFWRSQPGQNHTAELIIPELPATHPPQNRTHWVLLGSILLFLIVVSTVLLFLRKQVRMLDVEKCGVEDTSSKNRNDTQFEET

- median fluorescent intensity (MFI): 184 MFI
Substance: PE-conjugated isotype control antibody
